Measurements published in the nanobody polyreactivity screen of Harvey et al. (2022).

assay: yeast display, Sf9 membrane polyspecificity reagent, FACS + sequencing; frameworks hold sequencing errors
Summary of the method: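 Galactose-induced (36–48 hours) yeast carrying a synthetic nanobody display library were exposed to 10% biotinylated, detergent-solubilized Sf9 membrane reagent at 4 °C for 1 hour. FACS followed streptavidin microbead enrichment, using low and high (top ~1%) gates for expression (anti-HA) and reagent binding (streptavidin). Colony PCR, MiSeq 2 × 250 sequencing and CDR-length filtering followed. Labels for polyreactivity reflect the gate of origin.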

Row | Sequence | polyreactivity (PSR sort gate)
1 | QVHLVESGGGLVQAGGSLRLSCASSGIIFKTYAMGWYRQAPGKERELVAAISSGGTTYYADSVKGRFTISRDNAKNTVYLQMNSLKPEDTAVYYCAARGYRSGGGYNYWGHGTQVTVSS | high polyreactivity
2 | QVQLVESGGGLVQAGGSLRLSCAASGRIFKVYAMGWYRQAPGKERELVATISRGGSTYYADSVKGRFTISRDNAKNTVYLQMNSLKPEDTAVYYCAKQRERYYWFGAWSYDYWGQGTQVTVSS | low polyreactivity
3 | QVQLVESGGGLVQAGGSLRLSCAASGFIFGYYAMGWYRQAPGKERELVAAINKNGGSTYYADSVKGRFTISRDNAKNTVYLQMNSLKPEVTAVYYCAARARGYAWTYDYWGQGTQVTVSS | high polyreactivity
4 | QVQLVESGGGLVQAGGSLRLSCAASGSIFYKNAMGWYRQAPGKVRELVAAITGSGGRTYYADSVKGRFTISRDNAKNTVYLQMNSLKPEDTAVYYCNTDPSPRYRYDYWGQGTQVTVSS | high polyreactivity
5 | QVQLVESGGGLVQAGGSLRLSCAASGFIFDKYSMGWYRQAPGKERELVAAITDTGGNTYYADSVKGRFTISRDNAKNTVYLQMNILKPEDTAVYYSNADYTDYQTYSATTYEYWGQGTQVTVSS | low polyreactivity
6 | QVQLVESGGGLVQAGGSLRLSCAASGSIFDSNAMGWYRQAPGKERELVAAITGSGTSTYDADSVKGRFTISRDNAKNTVYLQMNSLKPEDTAVYYCAAAPEYLTDHDYWGQGTQVTVSS | low polyreactivity
7 | QVQLVESVGGLVQAGGSLRLSCAASGSIIFTNVMGWYRQAPGKDREFVAAITGGGGSTYYADSVKGRFTISRDNAKNTVYLQMNSLKPEDTAVYYCATKAKPRSGYNYWGQGTQVTVSS | low polyreactivity
8 | QVQLVESGGGLVQAGGSLRLSCAASGIIFGFYAMGWYRQAPGKERELVAAITNDGGITNYADSVKGRFTISRDNAMNTVYLQMNSLKPEDTAVYYCAKDQWPWVRDSLYTLRYDYWGQGTQVTVSS | low polyreactivity
9 | QVQLVESGGGLVQAGGSLRLSCAASGFIFQVYAMGWYRQAPGKERELVASISSSGGSTYYADSVKGRFTISRDNAKNTVYLQMNSLKPEDTAVYYCAVEQRYRYWYRYRYKFLLDSDYWGQGTQVTVSS | high polyreactivity
10 | QVQLVESGGGLVQAGGSLPLSCAASGSTFDRNVMGWYRQAPGKERELVAAISRVSSTNYADSVKGRFTISRDNAKNTVNLQMNSLKPEDTAVYSCAADGAGSIMNYWGQGTQVTVSS | low polyreactivity
11 | QVQLVESGGGLVQAGGSLRLSCAASGGIFPFNGMGWYRQAPGKERELVAAISSGGRTYYADSVKGRFTISRDNAKNTVYLQMNSLKPEDTAVYYCAARTSRYYYYPYAFYWGQGTQVTVSS | high polyreactivity
12 | QVQLVESGGGLVQAGGSLRLSCAASARIFKLNAMGGYRQAPVKERELVAAINSGTRTYYADSVKGRFSISRDNAKNTVYLQMKSLKPEDTAVYYGAAEGVWWYSRYDYWGQGTQVTVSS | high polyreactivity
13 | QVQLVESGGGLVQAGGSLRLSCADSGSTFDSYAMGWSRQAPGKEMDMVAGITWGGGSTYYADSVKGRLTISRDNAKNTVYLQLNSLKPEDTAVYDCAAEEVYYWYTYYYWGEGTQVTVSS | high polyreactivity
14 | QVQLVETGGGLVQAGGSLRLSCAASGIIFSRYAMGWYRQAPGIERELVASITGRVGSTYYADSVKGRFTISRDNAKNTVYLQMNRLKPEDTAVYYCAADYGYKFDYWGQGTQVTVSA | low polyreactivity
15 | QVQLVESGGGLDQAGGSLPLSCAASGLTFSSYAMGWYRQAPGKESELVATITSSGGDNTNYADSVKGRFTISRDNAKNTVYLQMNSLKPEDTAVYYCNKEGQQSYRWRMDYWGQGTQVTVSS | low polyreactivity
16 | QVQLQESGGGLVQAGGSMRLSCAASGSISELRPMGWYRQAPGKERELVAGISTGGSTNYADSVKGRFTISRDNAKNTVYLQMNSLKPEDTAVYYCAAASYGEGTYDYWGQGTQVTVRS | high polyreactivity
17 | QVQLVESGGGFVQAGGSLRLSCAASGFIFNRNAMGWYRQAPGKERELVAAISRSGGRTYYADSVKGRFTISRDTAKNTDYFQMNSLKPEDTAVYSCATEGYDGEFDYWGQGTQVTVSS | high polyreactivity
18 | QDQLVESGGGLVQAGGSLRLSCAASGRIFAGYAMGWYRQAPGKERELVATISSGGSTYYADSVKGRFTISRDNAKNTVYLQMHSLKPEDTAVYYCAAEYGTRQYSSYYKLFNYWGQGTQVTVSS | low polyreactivity
19 | QVQLVESGGGLVQAGGSLRLSCAASGITFTSYVMGWYRQAPGKERELVAAIRWSGGRTYYADSVKGRFTISRDNAKNTVYLQMNSLKPEDTAVYYCNRVTRSHVDYWGQGTQLTVSS | high polyreactivity
20 | QVQLVESGGGLVQAGGSLRLSCAASGIIFYYYAMGWYRQAPGKERELVAAISTSGGRTYYADSVKGRFTISRDNAKNTVYLQMNSLKPEDTAVYYCNTKVISRTSERRGNGFTRYDYWGQGTQVTVSS | low polyreactivity
21 | QVQLEESGGGLVQAGGRLRLSCAASGSTFVRSVMGSYRAAPGKERELVAAISEGGGSTYYADSVKGRFTISRDNAKNTVYLQMNSLKPEDTAVYYCAAEGYFRYWYGTIQYDYWGQGTQVTVSS | high polyreactivity
22 | QVQLVESGGGLVQAGGSLRLSCAASGSTFRYYGMGWYRQAPGKERELVAAITWSSGSTFYADSVKGRFTISRDNAKNTVYLQMNSLKPEDTAVYYCAKTWWTRLKTKSLHFGYWGQGTQVTVSS | high polyreactivity

Row | Sequence | polyreactivity (PSR sort gate)
23 | QGQLVESGGGLVQAGGSLRLSCAASGRTFTINAMGWYRQATGKERELHAAISSDGNTNYADSVKGRFTISRDNAKNTVYLQMNSLKPEDTAVYYCAADWVRYSYRHGSYRVYYWGQGTQVTVSS | high polyreactivity
24 | QVQLVESGGGLVQAGGSLRLSCAASGSTFNKYTMGWYRQAPGKERELVASISSDGSTNYADSVKGRFTISRDNAKNTVYLQMNSLKPEDTAVYYCAADEGTGQASLSSNLYDYWGQGTQVTVSS | low polyreactivity
25 | QDQLVESRGGLVQAGGSLRLSCAASGLIFWRYTMGWYSQAPGKERELVAAINRSGGSTYYADSVKGRFTISRDNAKNTVYFQMNSLKPDDPAVYYCAASGYRYPIDGDYWGLGTQVTVSS | high polyreactivity
26 | QVQLVESGGGLVQAGGSLRLSCAASGSIFYLYTMGWYRQATRKERELVAGISNGDRTYYADSVKGRFTISRDNAKNTVYFQMNSLKPEDTAVYYCAKGWYRIKRNDYWGQGTQVTVAS | low polyreactivity
27 | QVQLVESGGGLVQAGGSLRLSCAASGSTLRRYAMGWYRQAPGKERELVAAISGSGDSTYYADSVKGRFTISRDIAKNTVYLQMNSLKPEDTAVYYCNAVYAFNGYDYWGQGTQVTVSS | low polyreactivity
28 | QVQLVESGGGLVQAGGSLRLSCAASGRTFTYYAMGWYRQATGKERELVAAISRGGGSTHYADSVKGRFTISRDNAKNTVYFQMNSLKPEDTAVYYCAARYSTRYKYDYWGQGTQVTVSS | high polyreactivity
29 | QVQLVESGGGLVQAGGSLRLSCAASGRTFPRNGMGWYRQAPGKERELVAAIRYSGGSTYYADSVKGRFTISRDNAKNTVYLQMNSLKPEDTAVYYWAAGRNRAGGFGSWGQGTQVTVSS | high polyreactivity
30 | QVQLVESGGGLVQAGGSLRLSCAASGRTFRWYAMGWYRQAPGKERELVASITWSGGSTYYADSVKGRFTISRDNAKNSVYLQMNSLKPEDTAVYYCNRVLGVSLYEGNYWGQGTQVTVSS | high polyreactivity
31 | QVQLVESGGGLVQAGGSLRLSCAASGRILLFYAMGWYRQAPGKERELVASIDYSGGSTTYADSVKGRFTISRDNAKNTVYLQMNRLKPEDTAVYYCNAEAWWYFWFDYWGQGTQVTVSS | low polyreactivity
32 | QVQLVESGAGLVQAGGSLRLSCAASGRTFGSNAMGWYRQAPGKERELVAAITRGGSTNYADSVKGRFTISRDNAKNTVYLQMNSLKPEDTAVYYCAKRSYYRYRYYYWGQGTQVSVSS | high polyreactivity
33 | QVQLVESGAGLFQAGGSLRLSCAASGFTFNYYAMGGYIHAPGKERELVAAISRRGGSTYYADSVKGRFTISRDNAKNNVYLQMKSLKPEDTAVYYCNAASLKFTSPVRFGYWGQGTQVTVSS | high polyreactivity
34 | QVQLVESGGGLVQAGGRLRLICAASGRTSRIYAMGWYRQAPGKWELVAAISGSGSRTYYADSVKGRFTISRDNAKNTVYFQMNSLKPEDTAVSYCNARYWYRHHPPEFDYWGQGTQVTVSS | high polyreactivity
35 | QVQLVESGGGLVQAGGSLRLSCAASGRIFVPNNMGWYRQAPGKERDLVAAISSGGSTYADSVKGRFTISRDNAKNTFYLQLNSLKPEDTAVYYCAVGKYGTQFTQWVRKYDYWGQGTQVTVSS | low polyreactivity
36 | QVQLVESGGGLVQAGGSLRLSCAASGFTFDRYAMGWYRQAPGKERELVAAISWRGGSTYYADSVKGRFTISRDNAKNTDYLQMNSLKPEDTAVYYCNKGTRHTTAGTPRYDYWGQGTQVTVSS | high polyreactivity
37 | QVQLVESGGGLVQAGGSLRLSCAASGSIFFRNAMGWYRQAPGKEREFVAVINYSGGSTRYADSVKGRFTISRDNAKNTVYLQMNSLKPEDTAVYYCATRLYISKMYYWGQGTQVTVSS | high polyreactivity
38 | QVQLVESGGGLVQAGGSLRLSCAASGSTFPYYAMGWYRQAPGKERELVAVITSSGSRTYYADSVKGRFTISRDNAKNTVYLPMNSLKPEDTAVYYCARDTRYYLPYRSQYDYWGQGTQVTVSS | high polyreactivity
39 | QVQLVESGGGLVQAGGSLRLSCAASGSIFIGYAMGWYRQAPGKERELVAAITSGGSTYADSVKGRFTISRDNAKNTVYLQMNSLKPEDTAVYYCAAPRTYYSELTSPYDYWGQGTQVTVSS | low polyreactivity
40 | QVQLVESGVGLVQAGGSLGLTCAASGSIFYRYTMGWYREAPGKERELVAAISSDGDSTYYADSVKGRFTISRDNAKNTVYLQMNSLKPEDTAVYYCAADLEPYIGYHFYYWGQGTQVTVSS | low polyreactivity
41 | QVQLQESGGGLVQAGGSLRPRCAAGGTIFVSVNMGWYRHAPGEEREFVASITQGATTNYADSLIGRFTISRDNAKNTVYLQMNCQNQEDTAVYYCAVHESGGITFTYWGQGTQVTVSS | high polyreactivity
42 | QVQLVESGGGLVQAGGSLRLSCAASGSIVRSYAMGWYRQAPGKERELVAAITGGANTYYADSVKGRFTISRDNAKNTVYLQMNSLKPEDTAVYYCAASPIQTGSIFSTFYSYRSYYWGQGTQVTVSS | high polyreactivity
43 | QVQLVESGGGLVQAGGSLRLSCAASGRIFYVYAMGWYRQAPGKERELVAAISSDDGSTYYADSVKGRFTISRDNAKNTVYLQMNSLKPEVTAVYYCAKANKRGRYNYWGQGTQVTVSS | high polyreactivity
